# Data taken from patent US8927205.
# Assays:
# [1] = biological target: TNFR1-Fas receptor chimera on mouse fibroblasts from TNFR1/TNFR2 double-knockout mice (MF TNFR1-Fas cells) (UniProt P19438); assay: cell-based or functional assay
# [2] = biological target: normal human wild-type TNF receptors on Kym1 cells; assay: cell-based or functional assay
# TNFR1-Fas receptor chimera on mouse fibroblasts from TNFR1/TNFR2 double-knockout mice (MF TNFR1-Fas cells), sequence (P19438 other isoform, or with tags, fused parts or gaps mutant limits assumed): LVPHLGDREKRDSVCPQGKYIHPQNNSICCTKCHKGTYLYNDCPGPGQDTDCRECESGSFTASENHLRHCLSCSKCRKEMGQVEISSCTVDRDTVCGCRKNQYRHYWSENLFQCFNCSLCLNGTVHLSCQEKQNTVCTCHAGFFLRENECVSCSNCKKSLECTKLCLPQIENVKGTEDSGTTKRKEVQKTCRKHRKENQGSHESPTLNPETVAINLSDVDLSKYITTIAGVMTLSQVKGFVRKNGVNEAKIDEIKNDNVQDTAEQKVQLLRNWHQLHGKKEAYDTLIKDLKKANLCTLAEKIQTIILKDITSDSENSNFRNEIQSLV
substance,measurement,setting,value
soluble human wild-type TNF (from UniProt P01375 57-233) (ligand),"ED50 (half-maximal effective concentration), cytotoxicity on MF TNFR1-Fas cells, freshly prepared dilutions",[1],0.2 ng/mL
same,"ED50, cytotoxicity on MF TNFR1-Fas cells, dilutions stored 8 days at 37° C. before the test",[1],2 ng/mL
same,"ED50, cytotoxicity on MF TNFR1-Fas cells, solutions stored 14 days at 37° C. before the test",[1],2.8 ng/mL
same,"ED50, cytotoxicity on Kym1 cells, solutions stored 16 days at 37° C. (FIG. 8)",[2],1.2 ng/mL
same,"ED50 after 8 days (FIG. 12), stored at 37° C. in 100% human serum, cytotoxicity on Kym1 cells",[2],0.4 ng/mL
same,"ED50 after 22 days (FIG. 9), cytotoxicity on Kym1 cells, samples stored at 37° C.",[2],1.5 ng/mL
same,"ED50 freshly titrated (FIG. 7), cytotoxicity on Kym1 cells",[2],0.1 ng/mL
same,"ED50 freshly titrated (FIG. 11), diluted in 100% human serum, cytotoxicity on Kym1 cells",[2],0.004 ng/mL
